{"source": "paper PMC5757785", "target": "FlAsH-tagged Lys6-linked diubiquitin (UniProt P0CG47)", "test": "fluorescence polarisation", "data": [{"substance": "USP30^c13i (inactive USP30 construct 13, C77A) (from UniProt Q70CQ3 1-517) (enzyme)", "values": [{"measurement": "Kd", "result": 4, "unit": "µM"}]}]}
